According to the supplement of paper PMC9112550, “Optimization of the antimicrobial peptide Bac7 by deep mutational scanning” (BMC Biology, 2022):

Each sequence was assayed on Escherichia coli TOP10 (assay: shrunken log2 fold change of peptide-encoding DNA abundance (4.5 h post-induction vs induction); higher = less antimicrobial activity (less host growth inhibition)). Details: time post-induction: 4.5 h; library: site-saturation at positions 5, 18, 19, 20.
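Further: peptides expressed intracellularly from a pBAD plasmid library in pooled LB shake-flask culture, induced with 0.3% L-arabinose, DNA abundance read by NGS, three biological replicates, DESeq2 with apeglm shrinkage.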

In order of falling “shrunken log2 fold change” value:
1. RRIRWRPPRLPRPRPRPNGTPRP  1.67
2. RRIRPRPPRLPRPRPRPEAQPRP  0.904
3. RRIRGRPPRLPRPRPRPKWYPRP  0.806
4. RRIRKRPPRLPRPRPRPPWWPRP  0.777
5. RRIRARPPRLPRPRPRPFAEPRP  0.762
6. RRIRDRPPRLPRPRPRPEWAPRP  0.746
7. RRIRFRPPRLPRPRPRPGDWPRP  0.666
8. RRIRARPPRLPRPRPRPNDWPRP  0.466
9. RRIRSRPPRLPRPRPRPLPQPRP  0.461
10. RRIRGRPPRLPRPRPRPAERPRP  0.388
11. RRIRRRPPRLPRPRPRPLMTPRP  0.351
12. RRIRYRPPRLPRPRPRPRGDPRP  0.316
13. RRIRRRPPRLPRPRPRPMWWPRP  0.291
14. RRIRPRPPRLPRPRPRPEMGPRP  0.268
15. RRIRRRPPRLPRPRPRPHGHPRP  0.224
16. RRIRGRPPRLPRPRPRPWCFPRP  0.212
17. RRIRQRPPRLPRPRPRPARCPRP  0.174
18. RRIRARPPRLPRPRPRPKISPRP  0.173
19. RRIRARPPRLPRPRPRPRHVPRP  0.162
20. RRIRRRPPRLPRPRPRPHFFPRP  0.149
21. RRIRSRPPRLPRPRPRPTWGPRP  0.134
22. RRIRLRPPRLPRPRPRPMAIPRP  0.11
23. RRIRRRPPRLPRPRPRPMMHPRP  0.101
24. RRIRVRPPRLPRPRPRPSGQPRP  0.0937
25. RRIRTRPPRLPRPRPRPIRTPRP  0.063
26. RRIRMRPPRLPRPRPRPQMPPRP  0.0529
27. RRIRVRPPRLPRPRPRPWCGPRP  0.0506
28. RRIRIRPPRLPRPRPRPFHWPRP  0.0373
29. RRIRRRPPRLPRPRPRPQKHPRP  0.0365
30. RRIRWRPPRLPRPRPRPGTWPRP  0.0354
31. RRIRERPPRLPRPRPRPAMHPRP  0.0193
32. RRIRWRPPRLPRPRPRPIMEPRP  0.0164
33. RRIRGRPPRLPRPRPRPLDYPRP  0.0074
34. RRIRQRPPRLPRPRPRPMAQPRP  0.006
35. RRIRLRPPRLPRPRPRPGHLPRP  0.00551
36. RRIRTRPPRLPRPRPRPPWMPRP  -0.00314
37. RRIRNRPPRLPRPRPRPAEPPRP  -0.00965
38. RRIRIRPPRLPRPRPRPYKTPRP  -0.0104
39. RRIRVRPPRLPRPRPRPFADPRP  -0.0225
40. RRIRMRPPRLPRPRPRPPEYPRP  -0.035
41. RRIRYRPPRLPRPRPRPFPYPRP  -0.0356
42. RRIRCRPPRLPRPRPRPGEDPRP  -0.0369
43. RRIRARPPRLPRPRPRPTWKPRP  -0.0384
44. RRIRWRPPRLPRPRPRPNEGPRP  -0.0387
45. RRIRPRPPRLPRPRPRPMALPRP  -0.0509
46. RRIRRRPPRLPRPRPRPYAPPRP  -0.0565
47. RRIRLRPPRLPRPRPRPQHCPRP  -0.0642
48. RRIRHRPPRLPRPRPRPKESPRP  -0.069
49. RRIRIRPPRLPRPRPRPGDIPRP  -0.0899
50. RRIRHRPPRLPRPRPRPNCRPRP  -0.0986
51. RRIRYRPPRLPRPRPRPYNSPRP  -0.102
52. RRIRKRPPRLPRPRPRPKYTPRP  -0.113
53. RRIRHRPPRLPRPRPRPMDKPRP  -0.123
54. RRIRERPPRLPRPRPRPIGNPRP  -0.134
55. RRIRSRPPRLPRPRPRPHDAPRP  -0.142
56. RRIRNRPPRLPRPRPRPGFKPRP  -0.171
57. RRIRDRPPRLPRPRPRPPFNPRP  -0.217
58. RRIRLRPPRLPRPRPRPLCSPRP  -0.223
59. RRIRQRPPRLPRPRPRPLFYPRP  -0.251
60. RRIRIRPPRLPRPRPRPNDFPRP  -0.276
61. RRIRRRPPRLPRPRPRPYTWPRP  -0.299
62. RRIRIRPPRLPRPRPRPVFTPRP  -0.305
63. RRIRWRPPRLPRPRPRPQCPPRP  -0.357
64. RRIRTRPPRLPRPRPRPPYLPRP  -0.365
65. RRIRFRPPRLPRPRPRPHCLPRP  -0.377
66. RRIRSRPPRLPRPRPRPFKNPRP  -0.378
67. RRIRCRPPRLPRPRPRPANIPRP  -0.443
68. RRIRVRPPRLPRPRPRPTKCPRP  -0.458
69. RRIRTRPPRLPRPRPRPQITPRP  -0.474
70. RRIRDRPPRLPRPRPRPVYMPRP  -0.506
71. RRIRNRPPRLPRPRPRPHFHPRP  -0.529
72. RRIRCRPPRLPRPRPRPFMLPRP  -0.697
73. RRIRSRPPRLPRPRPRPFHHPRP  -0.804
74. RRIRIRPPRLPRPRPRPFNQPRP  -0.977
75. RRIRSRPPRLPRPRPRPYTNPRP  -1.46
